We go through one molecule from patent US20160237156A1.

What is called Ki is the dissociation constant of the complex between target and ligand, obtained from inhibition or displacement. Low values mean a stronger hold on the target, high ones a looser hold on the target. As a reminder, the IC50 is the midpoint of a concentration-inhibition curve. Low values mean inhibition by little substance, high ones a need for much substance.

The target of assay [1] is CXCR4 (human) (UniProt P61073). The assay can be described thus: cell-based or functional assay.
Chain of CXCR4 (human) (P61073 whole entry): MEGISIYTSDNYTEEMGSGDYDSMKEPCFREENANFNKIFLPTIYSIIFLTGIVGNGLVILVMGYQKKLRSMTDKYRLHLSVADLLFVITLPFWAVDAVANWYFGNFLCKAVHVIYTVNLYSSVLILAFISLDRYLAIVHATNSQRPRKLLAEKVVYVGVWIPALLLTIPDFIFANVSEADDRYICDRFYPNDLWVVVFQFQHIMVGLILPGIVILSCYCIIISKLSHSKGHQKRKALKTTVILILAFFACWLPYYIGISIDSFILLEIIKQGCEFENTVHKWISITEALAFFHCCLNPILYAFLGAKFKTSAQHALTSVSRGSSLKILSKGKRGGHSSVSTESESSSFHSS
Assay [2] has as its target CXCR4 (human) (UniProt P61073). The assay can be described thus: flow cytometry on CXCR4 transfected CHO cells, 1 µg/ml antibody.
For assay [3], the target named is SNAP-tag-CXCR4 (Tag-lite labeled CXCR4 cells, Cisbio Bioassays) (UniProt P61073). Nature of the assay: Tag-lite HTRF competition with 50 nM fluorescent SDF-1, Cheng-Prusoff. Background: In TR-FRET formats the signal depends on donor and acceptor labels being close together.
Chain of SNAP-tag-CXCR4 (Tag-lite labeled CXCR4 cells, Cisbio Bioassays) (P61073 whole entry): as above
For assay [4] the target is unchanged. The assay can be described thus: Tag-lite HTRF competition with 50 nM fluorescent SDF-1 on Tag-lite labeled CXCR4 cells.
In assay [5] the target is CXCR4 (human) (UniProt P61073). The assay can be described thus: flow cytometry on Jurkat cells, competition with fluorescein conjugated 12G5 (66.6 nM) as competitor. A general note: A flow cytometer gives signals particle by particle.

B1: BLV1H12-beta BCCX2 HC 1 IgG (antibody, V domains shown)
VH: QVQLRESGPSLVKPSQTLSLTCTASGFSLSDKAVGWVRQAPGKALEWLGSIDTGGNTGYNPGLKSRLSITKDNSKSQVSLSVSSVTTEDSATYYCTSVHQETKKYQSYRKCRGGRRWCYQKSYTYNYEWHVDVWGQGLLVTVSS
VL: QAVLNQPSSVSGSLGQRVSITCSGSSSNVGNGYVSWYQLIPGSAPRTLIYGDTSRASGVPDRFSGSRSGNTATLTISSLQAEDEADYFCASAEDSSSNAVFGSGTTLTVLG
Take B1: in assay [1], the inhibition of SDF-1 induced migration of Ramos cells, EC50 turned out to be 8.5 nM. The flow cytometry peak shift in assay [2] came to 73.8%. Also, the Ki in assay [3] was found to be 2.12 nM. The IC50 in assay [4] turned out to be 9.58 nM; in assay [5], 39.3 nM.
